Laboratory results as given in the DeepSol protein solubility set.

Assay: soluble on expression in E. coli; label from the status in PepcDB or PDB records

Sequence | soluble on expression in E. coli
MGSDKIHHHHHHLILNWPQSDSEHLMVSSEQMQNIEKEMFSMGMPVEALMEKVGIGISSWILDRHGLIENGAIVLVGPGHNGGDGLVVARELYMAGVDISIWCPFPLKKQLTQKHFHYAMQIGIENLERKPDSNSDLLWIEALFGLGQSRIISDEIIRLLNSKKTFSPEKLISIDVPAGLDSDNGNIVSNTSCKASSSLTLGLFKSGLIQDSAIDYVGNLERVDIGIPDKILAGFPETQPLRISFSDLSTFVWPMLSKSKSKYQRGRVLVIAGSEKYRGAASLALNGALASGVGSVSAFLPNSVSSALWITHPEVLLLGDLTAFQDGSSDFSKVLNEVDLNRFDSILLGPGLGIADEKDCFGSDLQDFKGLLVLDADAINRLSITSKGWEWLNDREGPTWLTPHLEEFKRLFPLIDCSNPLKAGIEAAKTCSSSVLLKCAHSVISDPEGKTWQIGQVNSSVARTGLGDVLAGFVSGMGASGLASDKKLDTSLLAASALMHAYAGAFSIKGSTASTICTFLGELIKKEST | not soluble
MAGKCVFIVGAKRTAFGTFGGKLKGLSATDLGVVASQAALKHANVGADAVDHVIFGNVVASSRDGIYLSRHIGLKSGVPQNVGALTVNRLCGSGFQAVVNAAQAIKLGESNIVLAGGTENMSMVPFAVRDIRFGTALGKKYEFEDMLWDSLSDPYAKLAMGQTAEKLGAQYKVTRQEADEFALRSQTLWKKAQEAGVYKNEIVGITIKGRKGEESFEIDEHPRATTAESLAKLKPVFQKDGLVNAGNASGISDGAAALVVAGEDSVKSKNLKPLARVVAYSAVGCDPTIMGIGPAPAIREVLKKSGLKIGDIDIFEVNEAFAPQALAVQRELGIPMEKLNVNGGAIALGHPLAASGARISTHIVHELHRRNVKYGIGSACIGGGQGIAILFEKIEMKVLSKKKFFSEKNQKSANTSTQSRVSDANSPPPPPPHFTRSFLGL | soluble
MMSLAWPLFRVTEQAALAAWPQTGCGDKNKIDGLAVTAMRQALNDVAFRGRVVIGEGEIDHAPMLWIGEEVGKGDGPEVDIAVDPIEGTRMVAMGQSNALAVMAFAPRDSLLHAPDMYMKKLVVNRLAAGAIDLSLPLTDNLRNVAKALGKPLDKLRMVTLDKPRLSAAIEEATQLGVKVFALPDGDVAASVLTCWQDNPYDVMYTIGGAPEGVISACAVKALGGDMQAELIDFCQAKGDYTENRQIAEQERKRCKAMGVDVNRVYSLDELVRGNDILFSATGVTGGELVNGIQQTANGVRTQTLLIGGADQTCNIIDSLH | soluble
MGSDKIHHHHHHMSIKSDKWIRRMAAQHGMIEPFEPNPIRQVNGEKIVSYGTSSYGYDIRCADEFKVFTNINSTIVDPKNFDPNSFVEFKNDFCIIPPNSFALARTVEYFRIPRSVLTVCLGKSTYARCGIIVNVTPFEPEWEGYVTLEFSNTTPLPAKIYAGEGCAQVLFFESDEECEISYKDRGGKYQGQVGVTLPKI | not soluble
SDPNKAEISRLEVLPQDLLGEIVAKIGAKYAEDYHNCILSCKELGASANDERVLKTLNLAPLVKKPLSCRKHLLIMKKCLANNNPDAHYIKGIIWYFNLDHCDVGLHHIGIAAN | soluble
MIDISVVIPLLNEAESIPELFAWIRRVMNEHGYSYEVIFVDDGSTDGSWSVIERLQAEHPEVKGIKFRRNYGKSAGLQCGFARTQGQVVITMDADLQDSPDEIPELYRMVTEGGYDLVSGWKRKRYDPLFSKNLPSKLFNATARKLSGIKLHDFNCGLKAYRHEVVENIELYNDMHRYIPYLAKSAGFGRIGEKVVQHQARKYGSSKFGISRFFNGYLDLLTLWFISKFGRKPMH | not soluble
MGSDKIHHHHHHMTDAVEILGAERSGRWVVTCDHACNRVPDDVAGGDLGLPPADMARHIAYDVGALGVARAMGEALNGPVVTSRFSRLVIDPNRGEDDPTLLMQIYDGSIIPANRGASQAEIDRRLDRFHRPYHRALAHVIAQRDDPIVVAIHSFTPQLIGRAPRPWHVSVLYAGDTRLPYPLLARLRDEDDLCVGDNEPYSGHLPGDALDRHGVQPGRLHVLIEVRNDLIETAEDQARWGVRLAQMLEAAATSADL | not soluble
MTNDLADIKLYDQNPDEAAIERLHHRLALVMKNQDASLVATSDPKELERVEKWVQDVLGADEQSAKRGVSKVADMMSGDRRKSRMTFYYLVAKQLNALHKI | not soluble
MGSDKIHHHHHHMFETITPESIKENILNELALVDVREGSYTNNLVSPTALAIWKLYDSLNALIPMVYVDETSGVYIDKKAAHYGITRKSGTKATAVLHFTGVDGKVVPKGTVFLTGDGLEFVTESAVTITAGAARTTAIAAEAGEAYNVPGGSITQQIVSISGLTGVTNDAAVGGTDPESDKSLVERLYAYLRKPATSGNVYHYEQWALAVDGVGGVKVAPLWNGPGTVKVLIVSPAKAPVDQEVVTRCADHIQQNRPIGAAVTVESASALMINVEATITIESTTTKSAVKEAFANSLNAYLQSIAFEKYELIYNRLAFMLLDIEGVIDYEDLTVNGGTSNITIAANEVPVAGMVVIS | not soluble
AQRRAVAAAGGLARSCPAGQQALLAEGFARRLLRDVAATLHEGEYTSPLCEPLAYADPLAGLAAALAELMAWPGLLAVLQPVQAQPDAVAAAAGAGAPAAAGAGVGAGSGARQRLAQETADRARAEVLVLLQELVTWLDPCCDDSRGVAPQDAAAVSLAAFRSLVEHDPGAAAALDADTNIRWYLCNLTGDDAPPAAPPAECVAPQSDMLLDLARRLLAALPPLAAAAAPG | not soluble
MGHHHHHHSHMLKSERKQIILSQLKQDGFVTLENLTVLLSDTSESTIRRDLDELAADGKLKRVHGGAESIHGLKEEIANSQKAIRNVQEKAQLAGYAADLIKEGDVVFLEASTTNELLIPHLSNRQVTVVTNSIHHAVKLVDLGISTRIIGGKVKHSTDASIGSTALEQIRQLNFDCAFIGANGVDANYFTTPDMEEAVIKRTVIANAQKAYVLADASKLGQITYAKVAEVEKVTIITNASEEGLLKELKEKTRVIEV | soluble
MSLEKQMNCNLKELKEFIDNEMLLILGQMDKPSLIFDHLYLGSEWNASNLEELQGSGVDYILNVTREIDNFFPGLFAYHNIRVYDEETTDLLAHWNEAYHFINKAKRNHSKCLVHCKMGVSRSASTVIAYAMKEFGWPLEKAYNYVKQKRSITRPNAGFMRQLSEYEGILDASKQRHNKLWRQQTDSEGHHHHHH | not soluble
RGSHMEVRNMVDYELLKKVVEAPGVSGYEFLGIRDVVIEEIKDYVDEVKVDKLGNVIAHKKGEGPKVMIAAHMDQIGLMVTHIEKNGFLRVAPIGGVDPKTLIAQRFKVWIDKGKFIYGVGASVPPHIQKPEDRKKAPDWDQIFIDIGAESKEEAEDMGVKIGTVITWDGRLERLGKHRFVSIAFDDRIAVYTILEVAKQLKDAKADVYFVATVQEEVGLRGARTSAFGIEPDYGFAIDVTIAADIPGTPEHKQVTHLGKGTAIKIMDRSVICHPTIVRWLEELAKKHEIPYQLEILLGGGTDAGAIHLTKAGVPTGALSVPARYIHSNTEVVDERDVDATVELMTKALENIHELKI | soluble
MGSDKIHHHHHHMKKISYIFASILLTASLSGCNDFLDVTPSDQYSDASVFTSTEGAQQVLIGAYDWFTNGHYAHYTNQYIFFMPDVMADDAMVNSTGNYNRFVSPYQYSITPSSTYSVDPWIGCYSLIDNCNAILDNLETLPESSERNRIEGESLALRTYAYHYLIRMYAKPVNKYPDNPGVILRLTSSTTDIPRSTVKDCYVQMVNDIEKACTLLTGTSSSSKCYITEQAAHGIAARIYLDLGDYTNGTSHANKALSEITLMSKADYKNKFCENNTETIWYFTCTSTDKQSFLSLPAFWYYCDQDSTYVKDGYSSLGVAKELIDIFDDTDIRKTLFVKIDGKYYKRNGSYVTCKINSRKNDDSDGTKGSGTVAFAEGDYNMMRGSEMYLIIAELAADNNHEDEALAALNKVREARGISAYSGTGDVLKTEIQNERRRELFAEGHRLFDLKRRDLPMDRSNLTLDWSRVGLIPAGSDKLEMPIPQNEIDANGALTIADQNPAYK | not soluble
MGSDKIHHHHHHMKHIHIIGIGGTFMGGIAAIAKEAGFEVSGCDAKMYPPMSTQLEALGIGVYEGFDTAQLDEFKADVYVIGNVAKRGMDVVEAILNRGLPYISGPQWLAENVLHHHWVLGVAGTHGKTTTASMLAWVLEYAGLAPGFLIGGVPENFSVSARLPQTPRQDPNSQSPFFVIEADEYDTAFFDKRSKFVHYRPRTAVLNNLEFDHADIFADLGAIQTQFHHLVRTVPSEGLIVCNGRQQSLQDTLDKGCWTPVEKFGTEHGWQAGEANADGSFDVLLDGKKAGHVAWSLMGGHNRMNALAVIAAARHAGVDIQTACEALSTFKNVKRRMEIKGTANGITVYDDFAHHPTAIETTIQGLRQRVGGARILAVLEPRSNTMKLGTMKAALPASLKEADQVFCYAGGADWDVAEALAPLGGRLHVGKDFDAFVAEIVKNAEAGDHILVMSNGGFGGIHTKLLDALR | not soluble
MGSDKIHHHHHHMKAVLVEQPGSSEQLKVVEREIPKIKEGWSLVKIKGFGINRSEIFTRKGYSPSVVFPRVLGIECVGIIEETSDKNHFFHGQKVVSIMGEMGRAFDGSYAEYVLLPNEQIYPIKTNLTWDKLAAAPESYYTAYGAYKNLKLKKQDLVLVRAGASGVALAFLNLLKASLPEIKVTASVRSLAKKQQLLDSGYDEVIIDRDSCLQTKQKFDKVLDLIGPACIDDTLNHVADGGIICLVGLLGGQWTLDNFDPIMALQNNIYLTTFYSGNINLNKLQELFDFIAKYAVPIKVEKIFTIDHIKEAHDYLESPQAFGKVIVLNGVA | not soluble
GSPLPWCPHLVAVCPIPAAGLDVTQPCGDCGTIQENWVCLSCYQVYCGRYINGHMLQHHGNSGHPLVLSYIDLSAWCYYCQAYVHHQALLDVKNIAHQNKFGEDMPHPH | soluble
MGSDKIHHHHHHMYTDADRSREVVPEKDGHDKKWRDEFGRDYGRIIHSASFRRQQGKTQVFPSRESDFFRNRLTHSLEVAQIAQGIAERINYDYDKDLGGKIDPRLCATAGLVHDIGHPPFGHNGESALDKAMQRYGGFEGNAQTLRILTRLEKKLRYAEPLAGDDRAGLNLCHRTIAATLKYDNEIPAIRKAADGFVKGYYGSEKIIVDRVKASVLNGYVLGAEEKFCTIECSIMDLADDIAYSVYDLEDCFKVGFLSPAEMLASDDALLSAVAKRASKPMKRTVTINEIQAVFMEIFSEIIEQPAEDADSPLDGIVIEDDIAQQAKRDESLLTFAEAYRTSKVMSEDGYKRTEFSSELVHQFISGVELKAHKECPSLSQIYLPEKLMLRKEVLKQYTFVAAIYAPRVKLGEYRGYDLVTDIFKALMGDRGDLLMPADVRGRIRKAPNVSVKAREVCDFVAGMTDRYAMEFWARLNSDAAESMFKPI | not soluble
MVSARLIFVPLHARPSGISSATTGYVPWRSFIYRNGGGRPVQSSRPWLNMQQTLRITEIFYSLQGETRTAGLPTVFVRLTGCPLRCHYCDTAYAFSGGDVVSLDAIFERVAAYKPRYICVTGGEPLAQPNCISLLERLCDAGYEVSLETSGALDVSRVDPRVSKVLDLKTPGSGEVGRNRYENIPLLTDNDQVKFVVCSREDYDWAVSKLIEYRLDQRAGEVLFSPSHHQVSARELADWIVADNLPVRLQLQLHKILWNDEPGH | soluble
MKLRRSMLFVPGSNAAMLSNSFIYKPDSIMFDLEDAVALKEKDSARLLVAHALQHPLYKEIETVVRVNPLDSEFGLLDLNSVVRAGVDVVRMPKTESAQDVLDMDHAITEIEKACGREAGSTKMLAAIESPLGITQANQIAFASKRLIGIALGAEDYVRNLKTERSPEGIELLFARCSILQAARAAGIQAFDTVYSNANNEEGFLKEAALIKQLGFDGKSLINPRQIELLHNLFAPTQKDVEQAKRIIEAAVEAERQGAGVVSLNGKMIDAPIIDRAKLVLERAKSGIREELEHHHHHH | soluble
